The target in the assay is T1, bovine serum albumin (bovine, UniProt P02769 25-607).
T1 construct: also called BSA
The assay can be described thus: SELDI-TOF ProteinChip, protein covalently bound to PS-1 chip, SP added. The protocol:
HGFIN-SP interaction was studied by pre-treating the PS1 chips with 50% acetonitrile for 3 min. After this, the chips were incubated for 45 min with the following: 2.5 μg HGFIN (experimental sample), anti-Id2, an unrelated IgG regarding its ability to complex with SP and was therefore treated as a negative control, rabbit anti-SP (positive control) or 20 ng fibronectin, fragment III-C (positive control). The arrays were blocked for 25 min with 1M ethanolamine and washed with PBS+0.5% Triton X (2×) and a final PBS wash step. After this the chips were washed with PBS+Triton-x, PBS, rinsed with 5 mM Hepes and then dried. CHCA was applied and the non-covalently bound SP was detected with the SELDI-Time of Flight Mass spectrometer as described for the profiling studies for HGFIN.
Fibronectin has been reported to bind SP. Therefore, this property of fibronectin was used as a positive control for SP interaction on the SELDI system. […] Similar results were shown with another positive control: rabbit anti-SP (covalently bound) and SP (FIG. 4C, lower chromatogram). No peak was detected in two negative controls, which consisted of bovine serum albumin or an unrelated antibody (anti-Id2) covalently bound to the surface of PS-1.

T1 sequence (P02769 25-607 limits assumed): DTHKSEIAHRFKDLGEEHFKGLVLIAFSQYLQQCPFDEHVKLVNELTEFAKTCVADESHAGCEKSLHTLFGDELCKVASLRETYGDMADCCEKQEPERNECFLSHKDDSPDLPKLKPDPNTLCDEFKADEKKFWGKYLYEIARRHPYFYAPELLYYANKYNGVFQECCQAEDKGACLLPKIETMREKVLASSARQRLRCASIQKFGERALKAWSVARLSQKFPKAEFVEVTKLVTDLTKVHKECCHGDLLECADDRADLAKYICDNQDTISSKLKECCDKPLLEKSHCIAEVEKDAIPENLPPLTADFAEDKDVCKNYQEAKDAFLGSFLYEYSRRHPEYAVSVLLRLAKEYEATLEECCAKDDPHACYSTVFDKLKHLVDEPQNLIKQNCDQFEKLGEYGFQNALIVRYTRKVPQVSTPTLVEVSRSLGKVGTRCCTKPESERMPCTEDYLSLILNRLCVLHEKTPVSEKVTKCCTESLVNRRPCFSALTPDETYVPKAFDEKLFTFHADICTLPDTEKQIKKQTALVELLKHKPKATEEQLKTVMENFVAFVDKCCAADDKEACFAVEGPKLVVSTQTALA

B1: Substance P (peptide, UniProt P20366 58-68, looked up)
peptide: RPKPQQFFGLM
notes: Substance P is an 11-residue peptide cut from it; 2 ug was added to the chips; also called SP
With B1, the binding result was “no binding”.

Source of the values: US20030202938A1 (UNIVERSITY OF MEDICINE AND DENTISTRY OF NEW JERSEY, published 2003).
